Experimental data reported in patent publication US20260167699A1 (Chugai, published 2026).

T1: FcγRIIa(R) (human, UniProt P12318 34-217)
T1 construct: extracellular domain; also called FcγRIIa R type; 2aR
T1 sequence: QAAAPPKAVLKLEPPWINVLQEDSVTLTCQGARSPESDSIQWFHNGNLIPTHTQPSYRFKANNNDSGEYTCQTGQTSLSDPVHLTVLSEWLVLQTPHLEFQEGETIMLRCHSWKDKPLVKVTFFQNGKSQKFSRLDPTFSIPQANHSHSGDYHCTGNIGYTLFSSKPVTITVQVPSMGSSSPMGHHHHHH

T2: FcγRIIa(H) (human, UniProt P12318 34-217)
T2 construct: extracellular domain; also called FcγRIIa H type; 2aH
T2 sequence: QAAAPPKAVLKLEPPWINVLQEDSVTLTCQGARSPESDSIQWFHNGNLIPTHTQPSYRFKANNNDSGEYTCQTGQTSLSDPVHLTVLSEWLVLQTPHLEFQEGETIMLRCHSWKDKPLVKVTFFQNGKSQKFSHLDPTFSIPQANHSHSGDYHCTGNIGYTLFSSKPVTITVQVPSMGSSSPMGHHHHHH

T3: FcγRIIb (human, UniProt P31994 43-217)
T3 construct: extracellular domain; also called 2b
T3 sequence: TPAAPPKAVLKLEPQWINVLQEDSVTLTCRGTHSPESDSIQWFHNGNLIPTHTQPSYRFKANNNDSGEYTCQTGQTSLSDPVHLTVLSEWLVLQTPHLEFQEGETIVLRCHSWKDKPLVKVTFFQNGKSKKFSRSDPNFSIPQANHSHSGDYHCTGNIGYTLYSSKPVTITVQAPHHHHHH


Experiments:
Assay in all cases: SPR (Biacore), binding relative to GpH7-A5/GpH7-B3/GpL16-k0 x100;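 also: surface plasmon resonance at 25 °C, antibody captured on a sensor chip and soluble FcγR flowed over it in HBS-EP+ running buffer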
FcγRIa = biological target: T4, FcγRIa (human, UniProt P12314 16-292)
T4 construct: extracellular domain; also called 1a
Experimental: (§1) The antibody of interest was analyzed for its interaction with FcγR using a BiaCore™ T100, BiaCore™ A100, or BiaCore™ 4000 surface plasmon resonance system (GE Healthcare Japan Corp.). The running buffer used was HBS-EP+ (GE Healthcare Japan Corp.). The assay temperature was set to 25° C. The sensor chips used were: a chip prepared by immobilizing antigenic peptides onto Series S Sensor Chip CM5 (GE Healthcare Japan Corp.) by the amine coupling method; a chip prepared by immobilizing antigenic peptides biotinylated in advance onto Series S Sensor Chip SA (certified) (GE Healthcare Japan Corp.) through their interaction; a chip prepared by immobilizing protein L (ACTIGEN, BioVision, Inc.) onto Series S Sensor Chip CM5 (GE Healthcare Japan Corp.); and a chip prepared by immobilizing protein A/G (Thermo Fisher Scientific K.K.) onto Series S Sensor Chip CM5 (GE Healthcare Japan Corp.). The antibody of interest was captured onto any of these chips and allowed to interact with FcγR diluted with a running buffer. The antibody captured on the chip was washed off through the reaction of 10 mM glycine-HCl (pH 1.5) to regenerate the chip, which was repetitively used.

FcγRIIa(R) = biological target: T1, FcγRIIa(R)
Experimental: as §1

FcγRIIa(H) = biological target: T2, FcγRIIa(H)
Experimental: as §1

FcγRIIb = biological target: T3, FcγRIIb
Experimental: as §1

T4 sequence (P12314 other isoform, or with tags, fused parts or gaps): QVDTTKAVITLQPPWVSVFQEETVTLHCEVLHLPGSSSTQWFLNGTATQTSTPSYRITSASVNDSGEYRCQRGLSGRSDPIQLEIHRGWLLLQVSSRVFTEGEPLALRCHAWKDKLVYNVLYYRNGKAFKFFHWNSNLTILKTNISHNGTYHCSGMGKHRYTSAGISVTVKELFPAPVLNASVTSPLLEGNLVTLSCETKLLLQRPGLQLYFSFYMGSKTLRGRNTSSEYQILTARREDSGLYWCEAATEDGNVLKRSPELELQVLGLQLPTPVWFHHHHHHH

Binder	He/Con 1a (FcγRIa)	He/Con 2aR (FcγRIIa(R))	He/Con 2aH (FcγRIIa(H))	He/Con 2b (FcγRIIb)
GpH7-A5/GpH7-B3 variant L234_04F/GpL16-k0 (antibody, human IgG1, kappa, heterodimerized IgG1, one H chain mutated; also called He Ab) heavy 1: not shown heavy 2: not shown light: DIVMTQSPLSLPVTPGEPASISCQASESLVHSNRNTYLHWYLQKPGQSPQLLIYKVSNRFSGVPDRFSGSGSGTDFTLKISRVEAEDVGVYYCSQNTHVPPTFGQGTKVEIERTVAAPSVFIFPPSDEQLKSGTASVVCLLNNFYPREAKVQWKVDNALQSGNSQESVTEQDSKDSTYSLSSTLTLSKADYEKHKVYACEVTHQGLSSPVTKSFNRGEC	104%	121%	133%	114%
GpH7-A5/GpH7-B3 variant L235_04F/GpL16-k0 (antibody, human IgG1, kappa, heterodimerized IgG1, one H chain mutated; also called He Ab) heavy 1: not shown heavy 2: not shown light: DIVMTQSPLSLPVTPGEPASISCQASESLVHSNRNTYLHWYLQKPGQSPQLLIYKVSNRFSGVPDRFSGSGSGTDFTLKISRVEAEDVGVYYCSQNTHVPPTFGQGTKVEIERTVAAPSVFIFPPSDEQLKSGTASVVCLLNNFYPREAKVQWKVDNALQSGNSQESVTEQDSKDSTYSLSSTLTLSKADYEKHKVYACEVTHQGLSSPVTKSFNRGEC	100%	132%	123%	135%
GpH7-A5/GpH7-B3 variant L234_20W/GpL16-k0 (antibody, human IgG1, kappa, heterodimerized IgG1, one H chain mutated; also called He Ab) heavy 1: not shown heavy 2: not shown light: DIVMTQSPLSLPVTPGEPASISCQASESLVHSNRNTYLHWYLQKPGQSPQLLIYKVSNRFSGVPDRFSGSGSGTDFTLKISRVEAEDVGVYYCSQNTHVPPTFGQGTKVEIERTVAAPSVFIFPPSDEQLKSGTASVVCLLNNFYPREAKVQWKVDNALQSGNSQESVTEQDSKDSTYSLSSTLTLSKADYEKHKVYACEVTHQGLSSPVTKSFNRGEC	102%	125%	126%	131%
GpH7-A5/GpH7-B3 variant L234_13S/GpL16-k0 (antibody, human IgG1, kappa, heterodimerized IgG1, one H chain mutated; also called He Ab) heavy 1: not shown heavy 2: not shown light: DIVMTQSPLSLPVTPGEPASISCQASESLVHSNRNTYLHWYLQKPGQSPQLLIYKVSNRFSGVPDRFSGSGSGTDFTLKISRVEAEDVGVYYCSQNTHVPPTFGQGTKVEIERTVAAPSVFIFPPSDEQLKSGTASVVCLLNNFYPREAKVQWKVDNALQSGNSQESVTEQDSKDSTYSLSSTLTLSKADYEKHKVYACEVTHQGLSSPVTKSFNRGEC	100%	82.6%	89.4%	67.7%
GpH7-A5/GpH7-B3 variant L235_02A/GpL16-k0 (antibody, human IgG1, kappa, heterodimerized IgG1, one H chain mutated; also called He Ab) heavy 1: not shown heavy 2: not shown light: DIVMTQSPLSLPVTPGEPASISCQASESLVHSNRNTYLHWYLQKPGQSPQLLIYKVSNRFSGVPDRFSGSGSGTDFTLKISRVEAEDVGVYYCSQNTHVPPTFGQGTKVEIERTVAAPSVFIFPPSDEQLKSGTASVVCLLNNFYPREAKVQWKVDNALQSGNSQESVTEQDSKDSTYSLSSTLTLSKADYEKHKVYACEVTHQGLSSPVTKSFNRGEC	95.2%	86.6%	77.6%	72%
GpH7-A5/GpH7-B3 variant L234_05P/GpL16-k0 (antibody, human IgG1, kappa, heterodimerized IgG1, one H chain mutated; also called He Ab) heavy 1: not shown heavy 2: not shown light: DIVMTQSPLSLPVTPGEPASISCQASESLVHSNRNTYLHWYLQKPGQSPQLLIYKVSNRFSGVPDRFSGSGSGTDFTLKISRVEAEDVGVYYCSQNTHVPPTFGQGTKVEIERTVAAPSVFIFPPSDEQLKSGTASVVCLLNNFYPREAKVQWKVDNALQSGNSQESVTEQDSKDSTYSLSSTLTLSKADYEKHKVYACEVTHQGLSSPVTKSFNRGEC	103%	104%	104%	83.2%
GpH7-A5/GpH7-B3 variant L234_09D/GpL16-k0 (antibody, human IgG1, kappa, heterodimerized IgG1, one H chain mutated; also called He Ab) heavy 1: not shown heavy 2: not shown light: DIVMTQSPLSLPVTPGEPASISCQASESLVHSNRNTYLHWYLQKPGQSPQLLIYKVSNRFSGVPDRFSGSGSGTDFTLKISRVEAEDVGVYYCSQNTHVPPTFGQGTKVEIERTVAAPSVFIFPPSDEQLKSGTASVVCLLNNFYPREAKVQWKVDNALQSGNSQESVTEQDSKDSTYSLSSTLTLSKADYEKHKVYACEVTHQGLSSPVTKSFNRGEC	101%	142%	100%	172%
GpH7-A5/GpH7-B3 variant L234_19Q/GpL16-k0 (antibody, human IgG1, kappa, heterodimerized IgG1, one H chain mutated; also called He Ab) heavy 1: not shown heavy 2: not shown light: DIVMTQSPLSLPVTPGEPASISCQASESLVHSNRNTYLHWYLQKPGQSPQLLIYKVSNRFSGVPDRFSGSGSGTDFTLKISRVEAEDVGVYYCSQNTHVPPTFGQGTKVEIERTVAAPSVFIFPPSDEQLKSGTASVVCLLNNFYPREAKVQWKVDNALQSGNSQESVTEQDSKDSTYSLSSTLTLSKADYEKHKVYACEVTHQGLSSPVTKSFNRGEC	98.8%	87.2%	88.1%	68.9%
GpH7-A5/GpH7-B3 variant L234_16H/GpL16-k0 (antibody, human IgG1, kappa, heterodimerized IgG1, one H chain mutated; also called He Ab) heavy 1: not shown heavy 2: not shown light: DIVMTQSPLSLPVTPGEPASISCQASESLVHSNRNTYLHWYLQKPGQSPQLLIYKVSNRFSGVPDRFSGSGSGTDFTLKISRVEAEDVGVYYCSQNTHVPPTFGQGTKVEIERTVAAPSVFIFPPSDEQLKSGTASVVCLLNNFYPREAKVQWKVDNALQSGNSQESVTEQDSKDSTYSLSSTLTLSKADYEKHKVYACEVTHQGLSSPVTKSFNRGEC	97%	83.5%	97.1%	67.8%
GpH7-A5/GpH7-B3 variant L234_14T/GpL16-k0 (antibody, human IgG1, kappa, heterodimerized IgG1, one H chain mutated; also called He Ab) heavy 1: not shown heavy 2: not shown light: DIVMTQSPLSLPVTPGEPASISCQASESLVHSNRNTYLHWYLQKPGQSPQLLIYKVSNRFSGVPDRFSGSGSGTDFTLKISRVEAEDVGVYYCSQNTHVPPTFGQGTKVEIERTVAAPSVFIFPPSDEQLKSGTASVVCLLNNFYPREAKVQWKVDNALQSGNSQESVTEQDSKDSTYSLSSTLTLSKADYEKHKVYACEVTHQGLSSPVTKSFNRGEC	102%	90%	86.8%	71.4%

Continued, values first:

He/Con 1a (FcγRIa)	He/Con 2aR (FcγRIIa(R))	He/Con 2aH (FcγRIIa(H))	He/Con 2b (FcγRIIb)	Binder
104%	130%	98.2%	134%	GpH7-A5/GpH7-B3 variant L234_10E/GpL16-k0 (antibody, human IgG1, kappa, heterodimerized IgG1, one H chain mutated; also called He Ab) heavy 1: not shown heavy 2: not shown light: DIVMTQSPLSLPVTPGEPASISCQASESLVHSNRNTYLHWYLQKPGQSPQLLIYKVSNRFSGVPDRFSGSGSGTDFTLKISRVEAEDVGVYYCSQNTHVPPTFGQGTKVEIERTVAAPSVFIFPPSDEQLKSGTASVVCLLNNFYPREAKVQWKVDNALQSGNSQESVTEQDSKDSTYSLSSTLTLSKADYEKHKVYACEVTHQGLSSPVTKSFNRGEC
97.3%	98%	100%	92%	GpH7-A5/GpH7-B3 variant L234_18N/GpL16-k0 (antibody, human IgG1, kappa, heterodimerized IgG1, one H chain mutated; also called He Ab) heavy 1: not shown heavy 2: not shown light: DIVMTQSPLSLPVTPGEPASISCQASESLVHSNRNTYLHWYLQKPGQSPQLLIYKVSNRFSGVPDRFSGSGSGTDFTLKISRVEAEDVGVYYCSQNTHVPPTFGQGTKVEIERTVAAPSVFIFPPSDEQLKSGTASVVCLLNNFYPREAKVQWKVDNALQSGNSQESVTEQDSKDSTYSLSSTLTLSKADYEKHKVYACEVTHQGLSSPVTKSFNRGEC
103%	113%	134%	110%	GpH7-A5/GpH7-B3 variant L234_15Y/GpL16-k0 (antibody, human IgG1, kappa, heterodimerized IgG1, one H chain mutated; also called He Ab) heavy 1: not shown heavy 2: not shown light: DIVMTQSPLSLPVTPGEPASISCQASESLVHSNRNTYLHWYLQKPGQSPQLLIYKVSNRFSGVPDRFSGSGSGTDFTLKISRVEAEDVGVYYCSQNTHVPPTFGQGTKVEIERTVAAPSVFIFPPSDEQLKSGTASVVCLLNNFYPREAKVQWKVDNALQSGNSQESVTEQDSKDSTYSLSSTLTLSKADYEKHKVYACEVTHQGLSSPVTKSFNRGEC
107%	109%	96.4%	89.6%	GpH7-A5/GpH7-B3 variant L234_06M/GpL16-k0 (antibody, human IgG1, kappa, heterodimerized IgG1, one H chain mutated; also called He Ab) heavy 1: not shown heavy 2: not shown light: DIVMTQSPLSLPVTPGEPASISCQASESLVHSNRNTYLHWYLQKPGQSPQLLIYKVSNRFSGVPDRFSGSGSGTDFTLKISRVEAEDVGVYYCSQNTHVPPTFGQGTKVEIERTVAAPSVFIFPPSDEQLKSGTASVVCLLNNFYPREAKVQWKVDNALQSGNSQESVTEQDSKDSTYSLSSTLTLSKADYEKHKVYACEVTHQGLSSPVTKSFNRGEC
97.8%	83.4%	94.9%	75.8%	GpH7-A5/GpH7-B3 variant L235_03V/GpL16-k0 (antibody, human IgG1, kappa, heterodimerized IgG1, one H chain mutated; also called He Ab) heavy 1: not shown heavy 2: not shown light: DIVMTQSPLSLPVTPGEPASISCQASESLVHSNRNTYLHWYLQKPGQSPQLLIYKVSNRFSGVPDRFSGSGSGTDFTLKISRVEAEDVGVYYCSQNTHVPPTFGQGTKVEIERTVAAPSVFIFPPSDEQLKSGTASVVCLLNNFYPREAKVQWKVDNALQSGNSQESVTEQDSKDSTYSLSSTLTLSKADYEKHKVYACEVTHQGLSSPVTKSFNRGEC
106%	110%	101%	92.3%	GpH7-A5/GpH7-B3 variant L234_07I/GpL16-k0 (antibody, human IgG1, kappa, heterodimerized IgG1, one H chain mutated; also called He Ab) heavy 1: not shown heavy 2: not shown light: DIVMTQSPLSLPVTPGEPASISCQASESLVHSNRNTYLHWYLQKPGQSPQLLIYKVSNRFSGVPDRFSGSGSGTDFTLKISRVEAEDVGVYYCSQNTHVPPTFGQGTKVEIERTVAAPSVFIFPPSDEQLKSGTASVVCLLNNFYPREAKVQWKVDNALQSGNSQESVTEQDSKDSTYSLSSTLTLSKADYEKHKVYACEVTHQGLSSPVTKSFNRGEC
